Like-named read-outs stand apart in the source and are kept apart here.
B1: C33B904 hIgG1 (antibody, V domains shown)
VH: EVQLVESGGGLVQPGRSLRLSCAASGFTFDDYAMHWVRQAPGKGLEWVSGIGWSGGSIVYADSVKGRFTISRDNAKNSLYLQMNSLRAEDTALYYCAKDSPYGDFFDYWGQGTLVTVSS
VL: DIVMTQSPDSLAVSLGERATINCKSSQTVFYSSNNKNYLAWYQQKPGQPPKLLISWASTRKSGVPDRFSGSGSGTDFTLTVSSLQAEDVAVYYCQHYYSTPYTFGQGTKLEIKR
notes: intact human IgG1; variable regions from US20190382481A1; also called C33B3904; C331B904
B2: C33B904 (antibody, human IgG1, kappa, V domains shown)
VH: B1 VH
VL: B1 VL
notes: control antibody, intact human IgG1 form; variable regions from US20190382481A1; also called C33B904 hIgG1; C331B904

What was measured:
[1] = molecular target: T1, human CD33-His (extracellular domain Asp 18-His 259) (human, UniProt P20138 18-259); assay: competitive ELISA vs coated S006-NB147-25 3ug/mL; soluble 25ug/ml
T1 construct: range 18-259; bought protein; also called hCD33-his; human CD33 protein; not shown: His tag

[2] = molecular target: T2, monkey CD33-His protein (monkey); assay: ELISA on coated monkey CD33-his
T2 construct: also called monkey CD33 protein

[3] = molecular target: T1, human CD33-His (extracellular domain …); assay: competitive ELISA vs coated S006-NB146-17 2ug/mL; soluble 25ug/ml
Method: VHH antibodies and control antibodies with known epitopes were subjected to epitope classification with competitive ELISA. ELISA plates were coated with 2 μg/mL antibodies according to the method in Example 5.1; the human CD33-his protein was subjected to a gradient dilution from 30 μg/mL, and EC80 values (Tables 26-27) were calculated. ELISA plates were coated with 2 μg/mL antibodies; after 25 µg/mL of antibodies to be tested were added, a human CD33-his protein having an EC80 concentration corresponding to each of the antibodies to be tested was then added for incubation for 2 h. The plates were washed 5 times with PBS, then HRP-labeled anti-His antibodies (purchased from GenScript, Cat. No. A00612) were added for incubation for 1 h, and the plates were washed 5 times. A TMB substrate was added at 50 μL/well and incubated at room temperature for 10 min, then a stop solution (1.0 M HCl) was added at 50 μL/well. OD_{450 nm} values were read using an ELISA plate reader (Insight, purchased from PerkinElmer), and the competition rate between the antibodies was calculated according to the OD_{450 nm} values using a formula. The results are shown in FIGS. 12A-12B, the higher the value of the competition rate, the closer the epitopes to which two antibodies bind.

[4] = molecular target: T2, monkey CD33-His protein; assay: ELISA on coated monkey CD33-his; remark: listed apart in the source
[5] = molecular target: T3, human CD33-his protein (human, UniProt P20138 18-259); assay: competition ELISA, coated human CD33-his, vs Biotin-C33B904 at EC80; antibody 7.81 nM
T3 construct: range 18-259; bought protein; also called hCD33-his; recombinant human CD33-his; not shown: His tag
Method: ELISA plates were coated with 2 μg/mL human CD33-his protein according to the method in Example 5.1; the Biotin-C331B904 antibody was subjected to a gradient dilution from 15 μg/mL, and EC80 values (0.18 μg/mL) were calculated. ELISA plates were coated with 2 μg/mL human CD33-his protein; starting from 40 μg/mL, the VHH antibodies to be tested were diluted in a 1:2 dilution ratio to obtain seven concentrations and added to the ELISA plates, and then Biotin-C331904 antibodies with the EC80 concentrations were added for incubation for 2 h. The plates were washed 5 times with PBS and then […] (purchased from Sigma, Cat. No. S2438) were added for incubation for 1 h, and the plates were washed 5 times. A TMB substrate was added at 50 μL/well and incubated at room temperature for 10 min, then a stop solution (1.0 M HCl) was added at 50 μL/well. OD_{450 nm} values were read using an ELISA plate reader (Insight, purchased from PerkinElmer). Then, analysis was performed by software (GraphPad Prism8), and data were fitted for curve plotting. The results are shown in FIGS. 13A-13B and Tables 28 and 29.

[6] = molecular target: T3, human CD33-his protein; assay: competition ELISA, coated human CD33-his, vs Biotin-C33B904 at EC80; antibody 125.00 nM
Method: The plate was sealed with a plastic film and incubated at 4° C. overnight, washed twice with PBS the next day, and a blocking solution [PBS+2% (w/w) BSA] was added for blocking at room temperature for 2 h. The blocking solution was discarded, and VHH-Fc antibody or negative control antibody serially diluted from 100 nM was added at 50 μL/well. After incubation at 37° C. for 2 h, the plate was washed 3 times with PBS. A secondary antibody labeled with HRP (horseradish peroxidase) (purchased from Sigma, Cat. No. A0170) was added. After incubation for 1 h at 37° C., the plate was washed 5 times with PBS. A TMB substrate was added at 50 μL/well. After incubation at room temperature for 10 min, a stop solution (1.0 N HCl) was added at 50 μL/well. The OD450 nm values were read on an ELISA plate reader (Multimode Plate Reader, EnSight, purchased from Perkin Elmer). The assay results for the binding of the VHH-Fc to hCD33-his by ELISA are shown in FIGS. 7A and 7B and Tables 11 and 12. […] The IgG control was hIgG1, and the data in the table are OD450 nm values.
ELISA plates were coated with 2 μg/mL human CD33-his protein according to the method in Example 5.1; the Biotin-C331B904 antibody was subjected to a gradient dilution from 15 μg/mL, and EC80 values (0.18 μg/mL) were calculated. […] OD_{450 nm} values were read using an ELISA plate reader (Insight, purchased from PerkinElmer). […]

T3 sequence (P20138 18-259 limits assumed): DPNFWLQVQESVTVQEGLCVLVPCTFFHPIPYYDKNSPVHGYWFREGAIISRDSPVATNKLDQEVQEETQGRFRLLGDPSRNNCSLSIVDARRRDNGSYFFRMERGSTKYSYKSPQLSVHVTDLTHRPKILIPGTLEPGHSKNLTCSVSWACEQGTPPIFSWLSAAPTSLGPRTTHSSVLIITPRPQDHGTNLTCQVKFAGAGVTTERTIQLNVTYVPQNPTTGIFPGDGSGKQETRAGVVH
T1 sequence (P20138 18-259 limits assumed): as above

| Binder | inhibition rate [1] | EC50 (read off the curve) [2] | inhibition rate [3] | EC50 (read off the curve) [4] | OD450 (Biotin-C33B904 signal) [5] | OD450 (Biotin-C33B904 signal) [6] |
| --- | --- | --- | --- | --- | --- | --- |
| B1 | 99% | ~0.2 nM | 1% | ~0.2 nM | – | – |
| B2 | – | – | – | – | 1.11 | 0.16 |

— US20240124575A1 (SIMCERE ZAIMING PHARMACEUTICAL, published 2024)
